The values below are quoted from earlier work in patent US20260077018A1, “TREATMENT OF MILD TRAUMATIC BRAIN INJURY” (OXEIA BIOPHARMACEUTICALS, INC., priority 2022, published 2026).

No end group written: not given here. *: point of attachment. Octanoyl = CCCCCCCC(=O)*

For the series the following is noted: in vivo; cited from earlier work.

For the substance “ghrelin (GSS(Octanoyl)FLSPEHQRVQQRKESKKPPAKLQPR; UniProt Q9UBU3 24-51, looked up) [OXE-103]”, the “effects of long term use” value is “increased appetite, weight gain, and adiposity”; the “safety in previous studies” value is listed as “quite safe”.
